# T1: human ASIP (agouti-signaling protein, RnD Systems) (human, UniProt P42127 23-132)
# T1 construct: Coated at 2 ug/ml; also called ASIP protein
# T1 sequence (looked up): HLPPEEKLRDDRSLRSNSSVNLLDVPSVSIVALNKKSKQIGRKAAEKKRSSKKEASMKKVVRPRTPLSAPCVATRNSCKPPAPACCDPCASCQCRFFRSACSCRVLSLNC
# B1: Protein M horseradish peroxidase (HRP) fusion protein (other)
# chain: EQKLISEEDLAANQLTPTFYDNSCPNVSNIVRDTIVNELRSDPRIAASILRLHFHDCFVNGCDASILLDNTTSFRTEKDAFGNANSARGFPVIDRMKAAVESACPRTVSCADLLTIAAQQSVTLAGGPSWRVPLGRRDSLQAFLDLANANLPAPFFTLPQLKDSFRNVGLNRSSDLVALSGGHTFGKNQCRFIMDRLYNFSNTGLPDPTLNTTYLQTLRGLCPLNGNLSALVDFDLRTPTIFDNKYYVNLEEQKGLIQSDQELFSSPNATDTIPLVRSFANSTQTFFNAFVEAMDRMGNITPLTGTQGQIRLNCRVVNSNSGGGGSGGGGSGGGGSTNLVNQSGYALVASGRSGNLGFKLFSTQSPSAEVKLKSLSLNDGSYQSEIDLSGGANFREKFRNFANELSEAITNSPKGLDRPVPKTEISGLIKTGDNFITPSFKAGYYDHVASDGSLLSYYQSTEYFNNRVLMPILQTTNGTLMANNRGYDDVFRQVPSFSGWSNTKATTVSTSNNLTYDKWTYFAAKGSPLYDSYPNHFFEDVKTLAIDAKDISALKTTIDSEKPTYLIIRGLSGNGSQLNELQLPESVKKVSLYGDYTGVNVAKQIFANVVELEFYSTSKANSFGFNPLVLGSKTNVIYDLFASKPFTHIDLTQVTLQNSDNSAIDANKLKQAVGDIYNYRRFERQFQGYFAGGYIDKYLVKNVNTNKDSDDDLVYRSLKELNLHLEEAYREGDNTYYRVNENYYPGASIYENERASRDSEFQNEILKRAEQNGVTFDENIKRITASGKYSVQFQKLENDTDSSLERMTKAVEGLVTVIGEEKFETVDITGVSSDTNEVKSLAKELKTNALGVKLKL
# notes: also called Protein M-HRP
# Target: T1, human ASIP (agouti-signaling protein, …)
# Experiment: ELISA: Protein M-HRP on coated human ASIP without antibody
binder,measurement,value
B1,binding result,no binding
